Laboratory results published in article PMC12867984, “Functional assessment of protein variants in structured domains by fluorescence cross-correlation spectroscopy” (Scientific Reports, 2026).
Numbering of substitutions follows the chain as printed. Numbers in names are those of the source.

Legend:
Conditions in all cases: partners not purified
mCherry-RBBP8 [1] = biological target: T1, mCherry-RBBP8 (UniProt Q99708 1-897); test: fluorescence cross-correlation spectroscopy (FCCS); GFP- and mCherry-tagged proteins co-expressed in live HeLa cells; focal volume in the nucleoplasm (MSH2-MSH6 also in the cytoplasm); room temperature; cross-correlation/autocorrelation ratio
T1 construct: also called mCherry-RBBP8/CtIP; CtIP; source: HeLa, transfected, in live cells and in lysate

mCherry-BARD1 = biological target: T2, mCherry-BARD1 (UniProt Q99728 1-777); test: fluorescence cross-correlation spectroscopy (FCCS); lysate of co-transfected HeLa cells; 20 mM Tris-HCl pH 7.5, 140 mM KCl, 1.5 mM MgCl2, 1 mM DTT, 0.5% NP-40; lysed at room temperature; cross-correlation/autocorrelation ratio
T2 construct: also called BRCA1 Associated RING Domain 1; source: HeLa, transfected, in live cells and in lysate
T2 sequence (looked up): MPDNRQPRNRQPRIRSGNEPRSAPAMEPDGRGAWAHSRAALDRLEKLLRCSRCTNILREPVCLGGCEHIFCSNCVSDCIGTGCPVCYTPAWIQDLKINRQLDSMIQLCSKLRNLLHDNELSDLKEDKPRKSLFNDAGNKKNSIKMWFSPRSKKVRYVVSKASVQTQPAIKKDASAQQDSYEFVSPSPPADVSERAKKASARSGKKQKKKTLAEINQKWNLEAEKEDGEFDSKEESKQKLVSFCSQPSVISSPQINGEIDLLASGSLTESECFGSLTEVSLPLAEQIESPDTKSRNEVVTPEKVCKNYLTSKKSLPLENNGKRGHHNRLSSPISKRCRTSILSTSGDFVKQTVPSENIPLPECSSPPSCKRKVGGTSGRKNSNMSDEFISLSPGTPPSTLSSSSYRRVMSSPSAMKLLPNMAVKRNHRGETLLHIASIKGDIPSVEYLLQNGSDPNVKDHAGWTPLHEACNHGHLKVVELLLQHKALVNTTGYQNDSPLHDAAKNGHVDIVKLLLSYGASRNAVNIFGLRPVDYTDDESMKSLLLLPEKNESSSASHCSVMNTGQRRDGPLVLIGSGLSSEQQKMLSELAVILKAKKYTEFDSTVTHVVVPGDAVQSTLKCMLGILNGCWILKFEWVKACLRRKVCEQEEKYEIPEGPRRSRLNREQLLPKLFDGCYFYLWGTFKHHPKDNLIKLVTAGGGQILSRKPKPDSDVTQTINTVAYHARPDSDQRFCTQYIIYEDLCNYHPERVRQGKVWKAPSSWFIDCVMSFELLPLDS

mCherry-JUND = biological target: T3, mCherry-JUND (UniProt P17535 1-347); test: as above
T3 construct: JUND; the construct is not described in the methods; also called JunD Proto-Oncogene; source: HeLa, transfected, in lysate
T3 sequence (looked up): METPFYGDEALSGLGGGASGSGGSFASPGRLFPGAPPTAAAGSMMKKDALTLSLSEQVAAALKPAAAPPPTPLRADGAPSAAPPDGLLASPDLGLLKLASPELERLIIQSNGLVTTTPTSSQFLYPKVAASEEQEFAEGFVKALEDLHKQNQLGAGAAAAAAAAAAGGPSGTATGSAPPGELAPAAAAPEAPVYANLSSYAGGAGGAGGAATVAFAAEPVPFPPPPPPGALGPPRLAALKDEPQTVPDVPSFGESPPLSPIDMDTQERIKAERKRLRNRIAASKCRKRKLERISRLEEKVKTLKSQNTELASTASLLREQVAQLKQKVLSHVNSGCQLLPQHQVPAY

mCherry-RBBP8 [2] = biological target: T1, mCherry-RBBP8; test: as above

T1 sequence (Q99708 whole entry): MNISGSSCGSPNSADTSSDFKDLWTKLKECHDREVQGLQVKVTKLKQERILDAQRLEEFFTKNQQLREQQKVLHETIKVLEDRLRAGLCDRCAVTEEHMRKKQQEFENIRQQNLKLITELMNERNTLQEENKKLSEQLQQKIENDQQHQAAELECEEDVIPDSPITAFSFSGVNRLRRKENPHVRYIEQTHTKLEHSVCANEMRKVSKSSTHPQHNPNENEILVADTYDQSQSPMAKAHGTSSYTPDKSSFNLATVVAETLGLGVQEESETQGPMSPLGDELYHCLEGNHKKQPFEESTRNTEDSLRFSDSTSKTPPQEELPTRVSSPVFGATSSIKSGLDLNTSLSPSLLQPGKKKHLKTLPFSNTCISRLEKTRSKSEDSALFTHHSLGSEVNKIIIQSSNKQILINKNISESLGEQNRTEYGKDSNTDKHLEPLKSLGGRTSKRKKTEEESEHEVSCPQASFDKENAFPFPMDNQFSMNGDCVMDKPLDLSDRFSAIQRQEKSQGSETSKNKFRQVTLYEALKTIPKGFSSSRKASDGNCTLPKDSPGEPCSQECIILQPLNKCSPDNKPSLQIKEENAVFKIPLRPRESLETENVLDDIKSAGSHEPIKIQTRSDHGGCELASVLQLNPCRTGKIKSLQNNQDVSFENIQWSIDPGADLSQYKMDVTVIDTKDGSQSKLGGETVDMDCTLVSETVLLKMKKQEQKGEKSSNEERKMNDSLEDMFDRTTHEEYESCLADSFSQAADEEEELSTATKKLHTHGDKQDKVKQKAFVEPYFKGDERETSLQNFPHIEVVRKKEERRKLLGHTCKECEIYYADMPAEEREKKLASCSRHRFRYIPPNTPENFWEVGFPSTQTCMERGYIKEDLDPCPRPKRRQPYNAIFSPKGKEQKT

B1: GFP-BRCA1 p.Thr1684Ala (natural protein, UniProt P38398 1-1863, looked up)
chain: MDLSALRVEEVQNVINAMQKILECPICLELIKEPVSTKCDHIFCKFCMLKLLNQKKGPSQCPLCKNDITKRSLQESTRFSQLVEELLKIICAFQLDTGLEYANSYNFAKKENNSPEHLKDEVSIIQSMGYRNRAKRLLQSEPENPSLQETSLSVQLSNLGTVRTLRTKQRIQPQKTSVYIELGSDSSEDTVNKATYCSVGDQELLQITPQGTRDEISLDSAKKAACEFSETDVTNTEHHQPSNNDLNTTEKRAAERHPEKYQGSSVSNLHVEPCGTNTHASSLQHENSSLLLTKDRMNVEKAEFCNKSKQPGLARSQHNRWAGSKETCNDRRTPSTEKKVDLNADPLCERKEWNKQKLPCSENPRDTEDVPWITLNSSIQKVNEWFSRSDELLGSDDSHDGESESNAKVADVLDVLNEVDEYSGSSEKIDLLASDPHEALICKSERVHSKSVESNIEDKIFGKTYRKKASLPNLSHVTENLIIGAFVTEPQIIQERPLTNKLKRKRRPTSGLHPEDFIKKADLAVQKTPEMINQGTNQTEQNGQVMNITNSGHENKTKGDSIQNEKNPNPIESLEKESAFKTKAEPISSSISNMELELNIHNSKAPKKNRLRRKSSTRHIHALELVVSRNLSPPNCTELQIDSCSSSEEIKKKKYNQMPVRHSRNLQLMEGKEPATGAKKSNKPNEQTSKRHDSDTFPELKLTNAPGSFTKCSNTSELKEFVNPSLPREEKEEKLETVKVSNNAEDPKDLMLSGERVLQTERSVESSSISLVPGTDYGTQESISLLEVSTLGKAKTEPNKCVSQCAAFENPKGLIHGCSKDNRNDTEGFKYPLGHEVNHSRETSIEMEESELDAQYLQNTFKVSKRQSFAPFSNPGNAEEECATFSAHSGSLKKQSPKVTFECEQKEENQGKNESNIKPVQTVNITAGFPVVGQKDKPVDNAKCSIKGGSRFCLSSQFRGNETGLITPNKHGLLQNPYRIPPLFPIKSFVKTKCKKNLLEENFEEHSMSPEREMGNENIPSTVSTISRNNIRENVFKEASSSNINEVGSSTNEVGSSINEIGSSDENIQAELGRNRGPKLNAMLRLGVLQPEVYKQSLPGSNCKHPEIKKQEYEEVVQTVNTDFSPYLISDNLEQPMGSSHASQVCSETPDDLLDDGEIKEDTSFAENDIKESSAVFSKSVQKGELSRSPSPFTHTHLAQGYRRGAKKLESSEENLSSEDEELPCFQHLLFGKVNNIPSQSTRHSTVATECLSKNTEENLLSLKNSLNDCSNQVILAKASQEHHLSEETKCSASLFSSQCSELEDLTANTNTQDPFLIGSSKQMRHQSESQGVGLSDKELVSDDEERGTGLEENNQEEQSMDSNLGEAASGCESETSVSEDCSGLSSQSDILTTQQRDTMQHNLIKLQQEMAELEAVLEQHGSQPSNSYPSIISDSSALEDLRNPEQSTSEKAVLTSQKSSEYPISQNPEGLSADKFEVSADSSTSKNKEPGVERSSPSKCPSLDDRWYMHSCSGSLQNRNYPSQEELIKVVDVEEQQLEESGPHDLTETSYLPRQDLEGTPYLESGISLFSDDPESDPSEDRAPESARVGNIPSSTSALKVPQLKVAESAQSPAAAHTTDTAGYNAMEESVSREKPELTASTERVNKRMSMVVSGLTPEEFMLVYKFARKHHITLTNLITEEATHVVMKTDAEFVCERTLKYFLGIAGGKWVVSYFWVTQSIKERKMLNEHDFEVRGDVVNGRNHQGPKRARESQDRKIFRGLEICCYGPFTNMPTDQLEWMVQLCGASVVKELSSFTLGTGVHPIVVVQPDAWTEDNGFHAIGQMCEAPVVTREWVLDSVALYQCQELDTYLIPQIPHSHY
notes: also called T1684A; source: HeLa, transfected, in live cells
mCherry-RBBP8 [1]
  reduction in binding relative to wild type: ~50%

B2: GFP-RING (isolated BRCA1 RING domain, wild-type) (domain or fragment, UniProt P38398 1-109, looked up)
chain: MDLSALRVEEVQNVINAMQKILECPICLELIKEPVSTKCDHIFCKFCMLKLLNQKKGPSQCPLCKNDITKRSLQESTRFSQLVEELLKIICAFQLDTGLEYANSYNFAK
notes: BRCA1 amino acids 1-109 cloned into pEGFP-C1; also called EGFP-tagged RING trimmed domain; wild-type RING; source: HeLa, transfected, in lysate
mCherry-BARD1
  cross-correlation: 25%

B3: GFP-RING-T37K (domain or fragment, UniProt P38398 1-109, looked up)
chain: B2 chain with T37K
notes: BRCA1 amino acids 1-109 with the variant; source: HeLa, transfected, in lysate
mCherry-BARD1
  reduction in binding relative to wild type: 20%

B4: GFP-RING-T37R (domain or fragment, UniProt P38398 1-109, looked up)
chain: B2 chain with T37R
notes: BRCA1 amino acids 1-109 with the variant; also called p.Thr37Arg; source: HeLa, transfected, in lysate
mCherry-BARD1
  reduction in binding relative to wild type: 30%

B5: GFP-RING D67Y (domain or fragment, UniProt P38398 1-109, looked up)
chain: B2 chain with D67Y
notes: BRCA1 amino acids 1-109 with the variant; also called D67Y variant (isolated RING domain); source: HeLa, transfected, in lysate
mCherry-BARD1
  reduction in binding relative to wild type: 22%

B6: GFP-Menin (natural protein, UniProt O00255 1-610, looked up)
chain: MGLKAAQKTLFPLRSIDDVVRLFAAELGREEPDLVLLSLVLGFVEHFLAVNRVIPTNVPELTFQPSPAPDPPGGLTYFPVADLSIIAALYARFTAQIRGAVDLSLYPREGGVSSRELVKKVSDVIWNSLSRSYFKDRAHIQSLFSFITGTKLDSSGVAFAVVGACQALGLRDVHLALSEDHAWVVFGPNGEQTAEVTWHGKGNEDRRGQTVNAGVAERSWLYLKGSYMRCDRKMEVAFMVCAINPSIDLHTDSLELLQLQQKLLWLLYDLGHLERYPMALGNLADLEELEPTPGRPDPLTLYHKGIASAKTYYRDEHIYPYMYLAGYHCRNRNVREALQAWADTATVIQDYNYCREDEEIYKEFFEVANDVIPNLLKEAASLLEAGEERPGEQSQGTQSQGSALQDPECFAHLLRFYDGICKWEEGSPTPVLHVGWATFLVQSLGRFEGQVRQKVRIVSREAEAAEAEEPWGEEAREGRRRGPRRESKPEEPPPPKKPALDKGLGTGQGAVSGPPRKPPGTVAGTARGPEGGSTAQVPAPTASPPPEGPVLTFQSEKMKGMKELLVATKINSSAIKLQLTAQSQVQMKKQKVSTPSDYTLSFLKRQRKGL
notes: Menin (MEN1); the construct and its isoform are not described in the methods; also called MEN1 factor Menin; source: HeLa, transfected, in lysate
mCherry-JUND
  cross-correlation: 21%

B7: GFP-Menin A242V (natural protein, UniProt O00255 1-610, looked up)
chain: B6 chain with A242V
notes: Menin (MEN1) with the variant; construct and isoform not described; source: HeLa, transfected, in lysate
mCherry-JUND
  binding relative to wild type: ~50%

B8: GFP-Menin A237V (natural protein, UniProt O00255 1-610, looked up)
chain: B6 chain with A237V
notes: as for B7
mCherry-JUND
  binding relative to wild type: ~50%

B9: GFP-BRCT (isolated BRCA1 BRCT domain, wild-type) (domain or fragment, UniProt P38398 1650-1863, looked up)
chain: MSMVVSGLTPEEFMLVYKFARKHHITLTNLITEETTHVVMKTDAEFVCERTLKYFLGIAGGKWVVSYFWVTQSIKERKMLNEHDFEVRGDVVNGRNHQGPKRARESQDRKIFRGLEICCYGPFTNMPTDQLEWMVQLCGASVVKELSSFTLGTGVHPIVVVQPDAWTEDNGFHAIGQMCEAPVVTREWVLDSVALYQCQELDTYLIPQIPHSHY
notes: BRCA1 amino acids 1650-1864 cloned into pEGFP-C1; the printed limit 1864 may count the stop codon; also called EGFP-tagged BRCT trimmed domain; source: HeLa, transfected, in lysate
mCherry-RBBP8 [2]
  cross-correlation: 17%
